Laboratory results: patent publication US8835467B2, “SIR2 regulation” (Albert Einstein College of Medicine of Yeshiva University, priority 2003, dated 2014)

System: NC(=O)c1cccnc1
Test: Sir2 catalyzed base exchange with H4 N-terminal peptide
Assay type: biochemical, yeast
Conditions: other: 0 mM isonicotinamide

Work on “Yeast Sir2 (Saccharomyces cerevisiae S288C)” yielded a Km of 120 µM.
